Reference: article PMC9860117, “The nematode α-catenin ortholog, HMP1, has an extended α-helix when bound to actin filaments” (The Journal of Biological Chemistry, 2022)

B1: HMP1/α-catenin F-actin binding domain (FABD, residues 677-927) (domain or fragment, C. elegans, UniProt P90947 677-927, looked up)
chain: NLMRRLPEEEKKKIQAQIDIFKVTQTRFEREVAKWDETGNDIISLANNMCKIMMSMTEFTRGCGPLKTTMDVIRAAQEISLNGSKLNALARQIGEESADSQTKKDLLAYLSQITLYCQQLNICSKVKADVTQVGNELVVSALDSAMSLIQTARNLLTAVVQTVKAAYIASTKFRRPNANSVRVEWRMAPPKKQPLIRPQKNNAIIRRASERRPLQPAKVLAEFTRNEIETGRDSDDEELDRRHQQRINGRL
notes: Cloned into pGEX-6P-1 with a PreScission site by DNA Custom Cloning; also called HMP1/α-catenin FABD; FABD of HMP1/α-catenin; source: E. coli BL21(DE3), purified as described for full-length HMP1/α-catenin; not shown: GST, N-terminal, cleaved
B2: full-length human α-catenin (residues 1-906) (natural protein, UniProt P35221 1-906, looked up)
chain: MTAVHAGNINFKWDPKSLEIRTLAVERLLEPLVTQVTTLVNTNSKGPSNKKRGRSKKAHVLAASVEQATENFLEKGDKIAKESQFLKEELVAAVEDVRKQGDLMKAAAGEFADDPCSSVKRGNMVRAARALLSAVTRLLILADMADVYKLLVQLKVVEDGILKLRNAGNEQDLGIQYKALKPEVDKLNIMAAKRQQELKDVGHRDQMAAARGILQKNVPILYTASQACLQHPDVAAYKANRDLIYKQLQQAVTGISNAAQATASDDASQHQGGGGGELAYALNNFDKQIIVDPLSFSEERFRPSLEERLESIISGAALMADSSCTRDDRRERIVAECNAVRQALQDLLSEYMGNAGRKERSDALNSAIDKMTKKTRDLRRQLRKAVMDHVSDSFLETNVPLLVLIEAAKNGNEKEVKEYAQVFREHANKLIEVANLACSISNNEEGVKLVRMSASQLEALCPQVINAALALAAKPQSKLAQENMDLFKEQWEKQVRVLTDAVDDITSIDDFLAVSENHILEDVNKCVIALQEKDVDGLDRTAGAIRGRAARVIHVVTSEMDNYEPGVYTEKVLEATKLLSNTVMPRFTEQVEAAVEALSSDPAQPMDENEFIDASRLVYDGIRDIRKAVLMIRTPEELDDSDFETEDFDVRSRTSVQTEDDQLIAGQSARAIMAQLPQEQKAKIAEQVASFQEEKSKLDAEVSKWDDSGNDIIVLAKQMCMIMMEMTDFTRGKGPLKNTSDVISAAKKIAEAGSRMDKLGRTIADHCPDSACKQDLLAYLQRIALYCHQLNICSKVKAEVQNLGGELVVSGVDSAMSLIQAAKNLMNAVVQTVKASYVASTKYQKSQGMASLNLPAVSWKMKAPEKKPLVKREKQDETQTKIKRASQKKHVNPVQALSEFKAMDSI
notes: cDNA from Open Biosystems; One construct that was isolated as a monomer pool and as a dimer pool; the dimer pool holds two copies of the chain; also called full-length monomeric human α-catenin; full-length dimeric human α-catenin; source: E. coli BL21(DE3), purified similar to HMP1/α-catenin; monomer and dimer SEC peaks pooled separately and run again on Superdex S200; not shown: GST, …

Legend:
[1] = target: the molecule itself; assay: cryo-EM structure; F-actin (0.7 uM) put on the grid first, then 0.6 mg/ml (21 uM) HMP1/α-catenin FABD added and removed repeatedly; helical reconstruction at 3.36 Å
[2] = target: the molecule itself; assay: SEC; Superdex S200 10/300 Gl, 20 mM Tris pH 8, 150 mM NaCl, 0.2 mM TCEP; monomer and dimer peaks pooled separately and each run a second time

Protein	binding result [1]	stoichiometry N [2]
B1	binds	
B2		2
